Assay results reported in US20130064823A1 (Novartis, published 2013).

T1: LRP6-Fc (R&D Systems, catalog No: 1505-LR) (human, UniProt O75581 20-1370)
T1 construct: also called 360 KD homodimer antigen LRP6-Fc
T1 sequence (looked up): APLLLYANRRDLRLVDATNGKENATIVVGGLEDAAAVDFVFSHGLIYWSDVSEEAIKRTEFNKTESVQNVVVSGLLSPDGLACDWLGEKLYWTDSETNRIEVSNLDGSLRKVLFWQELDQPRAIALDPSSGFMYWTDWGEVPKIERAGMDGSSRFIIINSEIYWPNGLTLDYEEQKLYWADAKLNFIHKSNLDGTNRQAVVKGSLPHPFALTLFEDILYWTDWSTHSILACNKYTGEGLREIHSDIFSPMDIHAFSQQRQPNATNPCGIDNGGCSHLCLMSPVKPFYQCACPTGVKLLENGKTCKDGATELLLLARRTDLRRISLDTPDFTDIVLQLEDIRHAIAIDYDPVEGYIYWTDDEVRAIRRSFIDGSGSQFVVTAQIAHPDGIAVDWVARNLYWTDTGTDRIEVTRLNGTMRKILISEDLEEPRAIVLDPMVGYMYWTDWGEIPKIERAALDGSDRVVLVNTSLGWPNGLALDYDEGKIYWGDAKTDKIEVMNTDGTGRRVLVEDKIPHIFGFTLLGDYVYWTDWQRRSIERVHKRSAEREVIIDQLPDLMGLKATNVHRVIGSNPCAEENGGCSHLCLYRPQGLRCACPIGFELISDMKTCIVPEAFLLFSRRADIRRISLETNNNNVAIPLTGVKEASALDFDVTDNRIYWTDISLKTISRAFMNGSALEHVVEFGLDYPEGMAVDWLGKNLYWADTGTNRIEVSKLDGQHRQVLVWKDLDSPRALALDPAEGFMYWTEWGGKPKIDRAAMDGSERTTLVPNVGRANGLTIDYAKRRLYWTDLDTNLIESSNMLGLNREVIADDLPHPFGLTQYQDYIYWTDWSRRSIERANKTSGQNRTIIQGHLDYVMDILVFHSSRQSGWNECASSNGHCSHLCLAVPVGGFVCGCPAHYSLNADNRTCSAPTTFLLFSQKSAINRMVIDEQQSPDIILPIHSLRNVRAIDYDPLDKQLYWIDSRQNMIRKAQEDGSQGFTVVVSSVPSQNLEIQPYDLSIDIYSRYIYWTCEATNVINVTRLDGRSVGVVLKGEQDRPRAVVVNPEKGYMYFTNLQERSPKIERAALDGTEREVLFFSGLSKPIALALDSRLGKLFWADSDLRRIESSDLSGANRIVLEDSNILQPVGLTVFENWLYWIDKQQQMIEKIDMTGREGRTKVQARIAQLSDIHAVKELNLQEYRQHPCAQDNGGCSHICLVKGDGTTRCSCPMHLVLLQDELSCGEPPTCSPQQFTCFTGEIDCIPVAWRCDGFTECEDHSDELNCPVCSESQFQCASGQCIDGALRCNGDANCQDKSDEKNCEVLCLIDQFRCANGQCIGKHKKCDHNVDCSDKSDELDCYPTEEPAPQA


Columns and labels:
cynomolgus LRP6 = cynomolgus LRP6 (cynomolgus, UniProt A0A2K5VCG3 20-1602); assay: FACS on HEK293T/17 cells transiently transfected with cynomolgus LRP6 (Example 3); Fab or IgG format not stated on the sheet
Sequence of cynomolgus LRP6 (A0A2K5VCG3 entry or part of it): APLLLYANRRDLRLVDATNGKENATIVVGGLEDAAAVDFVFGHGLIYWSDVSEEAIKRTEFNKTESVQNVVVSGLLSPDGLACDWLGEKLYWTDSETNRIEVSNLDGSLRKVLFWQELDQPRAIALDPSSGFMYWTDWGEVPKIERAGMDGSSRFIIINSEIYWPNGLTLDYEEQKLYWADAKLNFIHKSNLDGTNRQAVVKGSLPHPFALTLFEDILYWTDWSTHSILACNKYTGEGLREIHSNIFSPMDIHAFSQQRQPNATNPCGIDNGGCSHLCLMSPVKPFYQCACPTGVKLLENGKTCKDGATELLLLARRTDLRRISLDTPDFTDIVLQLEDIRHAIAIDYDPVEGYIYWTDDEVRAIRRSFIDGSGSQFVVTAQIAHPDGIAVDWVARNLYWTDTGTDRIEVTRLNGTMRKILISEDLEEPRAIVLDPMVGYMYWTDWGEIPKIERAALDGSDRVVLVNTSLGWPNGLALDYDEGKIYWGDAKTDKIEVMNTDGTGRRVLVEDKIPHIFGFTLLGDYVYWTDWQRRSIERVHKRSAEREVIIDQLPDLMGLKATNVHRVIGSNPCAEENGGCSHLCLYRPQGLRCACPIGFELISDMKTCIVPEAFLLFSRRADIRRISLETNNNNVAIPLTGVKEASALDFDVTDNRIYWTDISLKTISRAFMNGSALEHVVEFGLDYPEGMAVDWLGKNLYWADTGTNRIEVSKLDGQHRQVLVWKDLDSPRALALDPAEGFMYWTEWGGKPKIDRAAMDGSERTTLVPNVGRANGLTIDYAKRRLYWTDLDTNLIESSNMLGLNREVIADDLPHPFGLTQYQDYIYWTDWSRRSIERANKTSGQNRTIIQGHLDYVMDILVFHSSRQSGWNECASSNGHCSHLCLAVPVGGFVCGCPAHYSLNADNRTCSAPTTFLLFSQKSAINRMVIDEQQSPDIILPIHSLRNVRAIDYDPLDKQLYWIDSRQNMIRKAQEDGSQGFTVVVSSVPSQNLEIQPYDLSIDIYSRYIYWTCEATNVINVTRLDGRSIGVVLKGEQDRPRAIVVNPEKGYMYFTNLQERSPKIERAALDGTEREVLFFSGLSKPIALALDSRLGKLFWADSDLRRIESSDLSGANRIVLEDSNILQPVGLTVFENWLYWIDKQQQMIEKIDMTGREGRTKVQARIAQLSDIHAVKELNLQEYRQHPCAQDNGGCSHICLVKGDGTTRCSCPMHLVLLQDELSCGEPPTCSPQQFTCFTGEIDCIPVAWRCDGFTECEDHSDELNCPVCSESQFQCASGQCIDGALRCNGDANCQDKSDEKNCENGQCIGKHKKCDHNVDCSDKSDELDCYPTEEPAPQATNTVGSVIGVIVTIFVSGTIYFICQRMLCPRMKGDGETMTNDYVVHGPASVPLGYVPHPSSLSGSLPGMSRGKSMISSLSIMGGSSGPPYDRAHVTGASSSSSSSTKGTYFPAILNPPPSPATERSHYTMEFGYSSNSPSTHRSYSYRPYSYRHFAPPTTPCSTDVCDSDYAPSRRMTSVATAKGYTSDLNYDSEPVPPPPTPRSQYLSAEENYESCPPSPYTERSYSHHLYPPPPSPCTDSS

[1] = molecular target: T1, LRP6-Fc (R&D Systems, catalog No: …); assay: ELISA on plates coated with LRP6-Fc
Protocol: Binding EC₅₀ of scFvs against LRP6 protein was measured by ELISA. Maxisorp plate was coated with LRP6-Fc (R&D Sysytems, catalog No: 1505-LR) at 3 μg/ml at 4° C. overnight. The plate was blocked with 50 μl of 2% BSA for one hour, and washed five times with the wash solution. The samples were diluted with 1% BSA accordingly. The plate was incubated at RT for 1 h, and washed for 3 times. Detection was done by adding 50 μl pentallis-HRP (Qiagen Mat. No. 1014992) at 1:2000 dilution in 1% BSA, incubated at RT for 1 h, and washed 3 times. 50 μl of substrate reagent A plus B (R&D systems) was added, then incubated for 5-20 min depending on the color. The reaction was stopped by adding 25 μl of the stop solution, followed by plate reading at 450 nm.
Affinity analysis ELISA EC₅₀ was carried out for both scFv08168 and scFv06475 wild type and variants.

human LRP6 = human LRP6 (human, UniProt O75581 20-1613); assay: cell-based or functional assay

Binder	EC50 (cynomolgus LRP6) [nM]	EC50 [1] [nM]	IC50 by STF assay for Wnt1 inhibition (human LRP6) [nM]
MOR06706 Fab (Fab, V domains shown, also called Propeller 1 anti-LRP6 Fab MOR06706) VH: QVQLVESGGGLVQPGGSLRLSCAASGFTFSDYAIHWVRQAPGKGLEWVSGISYSGSSTHYADSVKGRFTISRDNSKNTLYLQMNSLRAEDTAVYYCARGSHGNIMAKRYFDFWGQGTLVTVSS VL: DIELTQPPSVSVAPGQTARISCSGDNIRKKYVYWYQQKPGQAPVLVIYEDSKRPSGIPERFSGSNSGNTATLTISGTQAEDEADYYCSTADSGINNGVFGGGTKLTVL	0.46	–	–
MOR08545 Fab (Fab, V domains shown, also called Propeller 1 anti-LRP6 Fab MOR08545) VH: QVQLVESGGGLVQPGGSLRLSCAASGFTFSVNGMHWVRQAPGKGLEWVSVIDGMGHTYYADSVKGRFTISRDNSKNTLYLQMNSLRAEDTAVYYCARYDYIKYGAFDPWGQGTLVTVSS VL: DIELTQPPSVSVAPGQTARISCSGDNIGSKYVHWYQQKPGQAPVLVIYGDSNRPSGIPERFSGSNSGNTATLTISGTQAEDEADYYCTRTSTPISGVFGGGTKLTVLG	0.3	–	–
scFv08168-D2 (scFv) QVQLVESGGGLVQPGGSLRLSCAASGFTFSDYVFNWVRQAPGKGLEWVAGISWSGVNTHYADSVKGRFTISRDNSKNTLYLQMNSLRAEDTAVYYCARLGATANNIRYKFMDVWGQGTLVTVSSGGGGSGGGGSGGGGSDIELTQPPSVSVAPGQTARISCSGDSLRNKVYWYQQKPGQAPVLVIYKNNRPSGIPERFSGSNSGNTATLTISGTQAEDEADYYCQSYDGQKSLVFGGGTKLTVL	–	1.68	–
scFv08168-D5 (scFv) QVQLVESGGGLVQPGGSLRLSCAASGFTFSDYVMNWVRQAPGKGLEWVSGISWSGVNTYYADSVKGRFTISRDNSKNTLYLQMNSLRAEDTAVYYCARLGATANNIRYKFMDVWGQGTLVTVSSGGGGSGGGGSGGGGSDIELTQPPSVSVAPGQTARISCSGDSLRNKVYWYQQKPGQAPVLVIYKNNRPSGIPERFSGSNSGNTATLTISGTQAEDEADYYCQSYDGQKSLVFGGGTKLTVL	–	1.22	–
scFv08168-D4 (scFv) QVQLVESGGGLVQPGGSLRLSCAASGFTFSDYVMNWVRQAPGKGLEWVSSISWSGVNTHYADSVKGRFTISRDNSKNTLYLQMNSLRAEDTAVYYCARLGATANNIRYKFMDVWGQGTLVTVSSGGGGSGGGGSGGGGSDIELTQPPSVSVAPGQTARISCSGDSLRNKVYWYQQKPGQAPVLVIYKNNRPSGIPERFSGSNSGNTATLTISGTQAEDEADYYCQSYDGQKSLVFGGGTKLTVL	–	1.47	–
MOR08193 Fab (Fab, V domains shown, also called Propeller 3 anti-LRP6 Fab MOR08193) VH: QVQLKESGPALVKPTQTLTLTCTFSGFSLSNRGGGVGWIRQPPGKALEWLAWIDWDDDKSYSTSLKTRLTISKDTSKNQVVLTMTNMDPVDTATYYCARMHLPLVFDSWGQGTLVTVSS VL: DIVLTQSPATLSLSPGERATLSCRASQFIGSRYLAWYQQKPGQAPRLLIYGASNRATGVPARFSGSGSGTDFTLTISSLEPEDFAVYYCQQYWSIPITFGQGTKVEIKR	0.2	–	–
MOR08473 Fab (Fab, V domains shown, also called Propeller 3 anti-LRP6 Fab MOR08473) VH: QVQLVESGGGLVQPGGSLRLSCAASGFTFSSYGMSWVRQAPGKGLEWVSNISNDGHYTYYADSVKGRFTISRDNSKNTLYLQMNSLRAEDTAVYYCARFQASYLDIMDYWGQGTLVTVSS VL: DIELTQPPSVSVAPGQSITISCSGDNIGSKYVHWYQQKPGQAPVLVIYNDSNRPSGIPERFSGSNSGNTATLTISGTQAEDEADYYCQAWGDNGTRVFGGGTKLTVLG	0.52	–	–
scFv08168-D7 (scFv, V domains shown) VH: QVQLVESGGGLVQPGGSLRLSCAASGFTFSDYVMNWVRQAPGKGLEWVSGISWSGVNTHYADSVKGRFTISRDNSKNTLYLQMNSLRAEDTAVYYCARLGATANNIRYKFMDVWGQGTLVTVSS VL: DIELTQPPSVSVAPGQTARITCSGDSLRNKVYWYQQKPGQAPVLVIYKNNRPSGIPERFSGSNSGNTATLTISGTQAEDEADYYCQSYDGQKSLVFGGGTKLTVL	–	1.15	4.81
scFv08168-D9 (scFv, V domains shown) VH: QVQLVESGGGLVQPGGSLRLSCAASGFTFSDYVMNWVRQAPGKGLEWVSGISWSGVNTHYADSVKGRFTISRDNSKNTLYLQMNSLRAEDTAVYYCARLGATANNIRYKFMDVWGQGTLVTVSS VL: DIELTQPPSVSVAPGQTARISCSGDSLRNKVYWYQQKPGQAPVLVIYKNNRPSGIPERFSVSNSGNTATLTISGTQAEDEADYYCQSYDGQKSLVFGGGTKLTVL	–	1.26	11.1
scFv08168-D6 (scFv, V domains shown) VH: QVQLVESGGGLVQPGGSLRLSCAASGFTFSDYVMNWVRQAPGKGLEWISGISWSGVNTHYADSVKGRFTISRDNSKNTLYLQMNSLRAEDTAVYYCARLGATANNIRYKFMDVWGQGTLVTVSS VL: DIELTQPPSVSVAPGQTARISCSGDSLRNKVYWYQQKPGQAPVLVIYKNNRPSGIPERFSGSNSGNTATLTISGTQAEDEADYYCQSYDGQKSLVFGGGTKLTVL	–	1.24	0.74
MOR08168 Fab (Fab, V domains shown, HuCAL Fab expressed in E. coli; also called Propeller 1 anti-LRP6 Fab MOR08168) VH: QVQLVESGGGLVQPGGSLRLSCAASGFTFSDYVINWVRQAPGKGLEWVSGISWSGVNTHYADSVKGRFTISRDNSKNTLYLQMNSLRAEDTAVYYCARLGATANNIRYKFMDVWGQGTLVTVSS VL: DIELTQPPSVSVAPGQTARISCSGDSLRNKVYWYQQKPGQAPVLVIYKNNRPSGIPERFSGSNSGNTATLTISGTQAEDEADYYCQSYDGQKSLVFGGGTKLTVL	0.88	–	–
scFv08168-D8 (scFv, V domains shown) VH: QVQLVESGGGLVQPGGSLRLSCAASGFTFSDYVMNWVRQAPGKGLEWVSGISWSGVNTHYADSVKGRFTISRDNSKNTLYLQMNSLRAEDTAVYYCARLGATANNIRYKFMDVWGQGTLVTVSS VL: DIELTQPPSVSVAPGQTARISCSGDSLRNKVYWYQQKPGQAPVLLIYKNNRPSGIPERFSGSNSGNTATLTISGTQAEDEADYYCQSYDGQKSLVFGGGTKLTVL	–	0.91	–
